Data reported in article PMC6781449 (The Journal of Cell Biology, 2019).

Target: T1, GST-leupaxin FL (mouse, UniProt Q99N69 1-386)
T1 sequence (looked up): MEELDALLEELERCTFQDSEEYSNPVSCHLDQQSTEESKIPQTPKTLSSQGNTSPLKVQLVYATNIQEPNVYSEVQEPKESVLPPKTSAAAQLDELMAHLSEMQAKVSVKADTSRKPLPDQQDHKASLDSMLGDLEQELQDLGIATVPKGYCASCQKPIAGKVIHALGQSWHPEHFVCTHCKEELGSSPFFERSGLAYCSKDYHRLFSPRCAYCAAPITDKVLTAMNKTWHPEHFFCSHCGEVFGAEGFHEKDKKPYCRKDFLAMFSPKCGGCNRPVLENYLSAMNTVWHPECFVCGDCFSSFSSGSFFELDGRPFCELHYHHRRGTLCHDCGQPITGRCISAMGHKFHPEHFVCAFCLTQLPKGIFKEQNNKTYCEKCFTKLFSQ
Assay: pull-down

B1: HisSUMO-tagged kindlin-3 F0 domain (domain or fragment, UniProt Q8K1B8 1-97, looked up)
chain: MAGMKTASGDYIDSSWELRVFVGEEDPEAQSVTLRVTGESHIGGVLLKIVEEINRKQDWSDHAIWWEQKRQWLLQTHWTLDKYGILADARLFFGPQH
binding result: binds
